Values belong to the substance of their own block, whether it stands above or below them.
Legend:
Assay in all cases: SEC
[1] = biological target: human glycyl-tRNA synthetase (GlyRS) G526R, CMT mutant (human)
[2] = biological target: human glycyl-tRNA synthetase (GlyRS) E71G, CMT mutant (human)
[3] = biological target: human glycyl-tRNA synthetase (GlyRS) G240R, CMT mutant (human)
[4] = biological target: human glycyl-tRNA synthetase (GlyRS), wild type (human)
[5] = biological target: human glycyl-tRNA synthetase (GlyRS) E279D, CMT mutant (human)
[6] = biological target: human glycyl-tRNA synthetase (GlyRS) L129P, CMT mutant (human)
[7] = biological target: human glycyl-tRNA synthetase (GlyRS) C157R, CMT mutant (human)

Substance: human glycyl-tRNA synthetase (GlyRS) E71G, CMT mutant (enzyme)
stoichiometry N [2]: 2

Substance: human glycyl-tRNA synthetase (GlyRS), wild type (enzyme)
stoichiometry N [4]: 2

Substance: human glycyl-tRNA synthetase (GlyRS) L129P, CMT mutant (enzyme)
stoichiometry N [6]: 2

Substance: human glycyl-tRNA synthetase (GlyRS) C157R, CMT mutant (enzyme)
stoichiometry N [7]: 2

The next lines start with the values.

stoichiometry N [1]: 2
Substance: human glycyl-tRNA synthetase (GlyRS) G526R, CMT mutant (enzyme)

stoichiometry N [3]: 2
Substance: human glycyl-tRNA synthetase (GlyRS) G240R, CMT mutant (enzyme)

stoichiometry N [5]: 2
Substance: human glycyl-tRNA synthetase (GlyRS) E279D, CMT mutant (enzyme)
